Assay results taken from paper PMC10928113, “Molecular architecture and platelet-activating properties of small immune complexes assembled on heparin and platelet factor 4” (Communications Biology, 2024).
Where “and” joins values, the source holds several entries; their conditions need not be identical. Equal values may be shown once.

Key:
[1] = target: T1, recombinant form of human platelet factor 4 (PF4) (human, UniProt P02776); experiment: native MS; PF4·dp20 complexes incubated with a nearly equimolar amount of KKO (0.28 mg/mL and 0.06 mg/mL); 150 mM ammonium acetate, pH 6.9; conditions: both partners purified
T1 construct: platelet factor 4 (PF4), human, recombinant; stands as a tetramer in the complexes; also called recombinant PF4; PF4 tetramer

[2] = target: T1, recombinant form of human platelet …; experiment: native MS; highest-MW SEC sub-fraction of PF4/UFH small complexes incubated with a nearly equimolar amount of KKO (antibody excess up to 33% also tested); 150 mM ammonium acetate, pH 6.9; limited charge reduction; conditions: both partners purified
[3] = target: the molecule itself; experiment: native MS; PF4 incubated with UFH, SEC sub-fractions of the small complexes; 150 mM ammonium acetate, pH 6.9; masses by limited charge reduction

B1: KKO monoclonal anti-PF4/heparin antibody (antibody, V domains shown)
VH: VQLQQSGAELVKPGASVKLSCKASGYTFTNYFIYWVKQRPGQGLEWIGEINPRNGDTDFNEKFESRATLTVDKSSSTAYMQLSSLTSEDSAIYYCTRSPYGNNYGFTYWGQGTLVTVSA
VL: DIQMIQSQKFMSTSVGDRVTVTCKASQNVGTNVAWYQQKPGQSPNALIYSASYRYSGVPDRFTGSGSGTDFTLTITNVQSEDLADYFCQQYNSYPLTFGTGTKLDLK
notes: Whole IgG (measured 152.5 kDa); also called KKO mAb; KKO hybridoma clone 31.2.57.A7; source: KKO hybridoma clone 31.2.57.A7 (ATCC), supernatant, purified (Protein A Sepharose)
[1]
  stoichiometry N: 1 PF4 tetramer per KKO and 2 PF4 tetramers per KKO
[2]
  stoichiometry N: 1 KKO per complex of one heparin chain and two PF4 tetramers and 2 KKO per complex of one heparin chain and three PF4 tetramers

B2: recombinant form of human platelet factor 4 (PF4) (natural protein)
chain: EAEEDGDLQCLCVKTTSQVRPRHITSLEVIKAGPHCPTAQLIATLKNGRKICLDLQAPLYKKIIKKLLES
notes: platelet factor 4 (PF4), human, recombinant; stands as a tetramer in the complexes; also called recombinant PF4; PF4 tetramer
[3]
  stoichiometry N: 4 subunits (tetramer)
